{
  "source": "paper PMC2270309",
  "about": "“Insights into Mad2 Regulation in the Spindle Checkpoint Revealed by the Crystal Structure of the Symmetric Mad2 Dimer” (PLoS Biology, 2008)",
  "key": {"His6-O-Mad2^ΔN10 (human)": {"molecular_target": "His6-O-Mad2^ΔN10 (human)", "experiment": "SEC; gel filtration of the high-salt peak (Q2) of anion exchange chromatography (holds the C-Mad2 conformer)"}, "[1]": {"molecular_target": "the molecule itself", "experiment": "SEC; gel filtration of the high-salt peak (Q2) of anion exchange chromatography (holds the C-Mad2 conformer)"}, "Human Cdc20": {"molecular_target": "Human Cdc20 (human, UniProt Q12834 1-499)", "sequence (Q12834 whole entry)": "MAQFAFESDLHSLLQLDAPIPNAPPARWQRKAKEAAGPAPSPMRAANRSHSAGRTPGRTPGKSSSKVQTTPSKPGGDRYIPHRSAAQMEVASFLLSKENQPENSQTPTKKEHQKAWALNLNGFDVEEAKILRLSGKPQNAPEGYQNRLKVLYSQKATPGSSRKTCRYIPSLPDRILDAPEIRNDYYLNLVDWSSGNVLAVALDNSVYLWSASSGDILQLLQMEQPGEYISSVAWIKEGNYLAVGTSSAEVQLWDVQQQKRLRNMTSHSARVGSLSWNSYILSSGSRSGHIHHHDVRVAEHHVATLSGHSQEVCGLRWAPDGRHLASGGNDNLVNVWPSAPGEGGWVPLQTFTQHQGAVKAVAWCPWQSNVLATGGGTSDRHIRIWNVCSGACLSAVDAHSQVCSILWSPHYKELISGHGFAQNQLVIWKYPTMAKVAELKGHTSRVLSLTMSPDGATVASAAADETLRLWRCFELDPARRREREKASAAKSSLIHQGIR", "experiment": "cell-based or functional assay"}, "[2]": {"molecular_target": "the molecule itself", "experiment": "AUC; sedimentation equilibrium at 4 °C; 0.23, 0.36 and 0.50 mg/ml; 20 mM Tris pH 8.0, 50 mM NaCl, 0.2 mM TCEP; 13,000, 17,500 and 25,000 rpm; global fit to a monomer-dimer equilibrium; dimer to monomers"}, "[3]": {"molecular_target": "Mad2^L13A,R133A double mutant (human, UniProt Q13257 1-205, L13A | R133A)", "experiment": "ITC"}, "[4]": {"molecular_target": "Mad2^L153A (in the background of R133A) (human, UniProt Q13257 1-205, L153A | R133A)", "experiment": "ITC"}, "[5]": {"molecular_target": "Mad2^Y156A (in the background of R133A) (human, UniProt Q13257 1-205, Y156A | R133A)", "experiment": "ITC"}, "Mad2^R133A": {"molecular_target": "Mad2^R133A (human, UniProt Q13257 1-205, R133A)", "experiment": "ITC"}},
  "data": [
    {"molecule": "untagged C-Mad2^ΔN10 (domain or fragment)", "values": [
      {"measurement": "stoichiometry N", "setting": "His6-O-Mad2^ΔN10 (human)", "value": 1}
    ]},
    {"molecule": "Mad2^L13A,C79S,C106S triple mutant (natural protein, human, UniProt Q13257 1-205, looked up, Mad2, human, coding region (205 residues), with L13A, C79S and C106S; also called Mad2^L13A dimer; symmetric C–C Mad2 dimer; source: E. coli BL21 (pGEX), purified (glutathione-Sepharose, TEV cleavage, anion exchange, gel filtration)) MALQLSREQGITARGSAEIVAEFFSFGINSILYQRGIYPSETFTRVQKYGLTLLVTTDLELIKYLNNVVEQLKDWLYKSSVQKLVVVISNIESGEVLERWQFDIESDKTAKDDSAPREKSQKAIQDEIRSVIRQITATVTFLPLLEVSCSFDLLIYTDKDLVVPEKWEESGPQFITNSEEVRLRSFTTTIHKVNSMVAYKIPVND", "values": [
      {"measurement": "stoichiometry N", "setting": "[1]", "value": 2},
      {"measurement": "inhibition of APC/C^Cdc20 in an in vitro reconstituted APC/C ubiquitination assay (Myc-cyclin B1); Mad2 dimers at 1–16 μM preincubated with Cdc20 for 30 min", "setting": "Human Cdc20", "value": "~3", "unit": "fold"},
      {"measurement": "Kd", "setting": "[2]", "value": 250, "unit": "nM"},
      {"measurement": "stoichiometry N", "setting": "[2]", "value": "~2"}
    ]},
    {"molecule": "EHQKAWALNLNGFDVEEAKILRLSGKPQ (domain or fragment, Limits not printed. 111-138 is the conventional Mad2-binding fragment of human Cdc20 around the KILR motif (129-132). Check residues come from the candidate's motif feature, not from the paper.)", "note": "[Mad2-binding motif of Cdc20]", "values": [
      {"measurement": "Kd", "setting": "[3]", "value": 120, "unit": "nM"},
      {"measurement": "Kd", "setting": "[4]", "value": 210, "unit": "nM"},
      {"measurement": "Kd", "setting": "[5]", "value": 560, "unit": "nM"},
      {"measurement": "Kd", "setting": "Mad2^R133A", "value": 140, "unit": "nM"}
    ]}
  ]
}
